Values quoted from earlier work, collected in patent US12233109B2, “Long-acting GLP-1r agonist as a therapy of neurological and neurodegenerative conditions” (The Johns Hopkins University, priority 2015, dated 2025).

Details: in vivo

Albiglutide: dipeptidyl peptidase-4-resistant glucagon-like peptide-1 dimer fused to human albumin
half-life: four to seven
